The values that follow are results of earlier work, collected in patent US7557183B2, “Polyethylene glycol linked GLP-1 compounds” (Eli Lilly and Company, priority 2003, dated 2009).

The conditions of this data set: in vivo.

Turning to “GLP-1(7-37): native truncated GLP-1 peptide, SEQ ID NO: 1”, the serum half-life is 3 to 5 min.
